# What was measured:
# [1] = target: apoE4 (human) (UniProt P02649); assay: cell-based or functional assay
# [2] = target: apoE3 (human) (UniProt P02649); assay: cell-based or functional assay
# [3] = target: apoE4 (human) (UniProt P02649); assay: competitive inhibition ELISA: lipidated apoE4 100 nM preincubated with Aβ12-28P (0-400 nM), added to Aβ1-40 coated wells; one-site competition fit
# Sequence of apoE4 (human) (P02649 19-317 C130R limits assumed): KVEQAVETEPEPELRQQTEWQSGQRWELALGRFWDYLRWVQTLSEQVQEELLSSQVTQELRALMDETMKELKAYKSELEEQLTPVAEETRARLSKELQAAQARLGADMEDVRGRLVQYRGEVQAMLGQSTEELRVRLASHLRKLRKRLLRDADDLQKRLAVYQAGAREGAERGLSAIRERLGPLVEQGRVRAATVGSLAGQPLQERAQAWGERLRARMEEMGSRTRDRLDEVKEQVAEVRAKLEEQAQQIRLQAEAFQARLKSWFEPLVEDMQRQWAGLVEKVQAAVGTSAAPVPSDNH
# Sequence of apoE3 (human) (P02649 19-317 limits assumed): as the sequence (P02649 19-317 C130R limits assumed) above, with R112C counted along it
substance,measurement,setting,value
Aβ12-28P (peptide),relative reduction in Thioflavin-T fluorescence of Aβ1-42 with apoE4 after 24 h of incubation,[1],25.3%
same,relative reduction in Thioflavin-T fluorescence of Aβ1-42 with apoE4 by day six,[1],52.3%
same,relative reduction in Thioflavin-T fluorescence of Aβ1-42 with apoE3 after 24 h of incubation,[2],14.5%
same,relative reduction in Thioflavin-T fluorescence of Aβ1-42 with apoE3 by day six,[2],48.3%
same,IC50,[3],36.7 nM
